Experimental data: publication PMC4663108 (Journal of molecular biology, 2015)

Target: DnaK D45C-biotin (E. coli, UniProt P0A6Y8 1-638, D45C, biotin (labeled with a 20-fold excess of Maleimide-PEG11-Biotin))
Test: pull-down

B1: CbpA (natural protein, E. coli, UniProt P36659 1-306, looked up)
chain: MELKDYYAIMGVKPTDDLKTIKTAYRRLARKYHPDVSKEPDAEARFKEVAEAWEVLSDEQRRAEYDQMWQHRNDPQFNRQFHHGDGQSFNAEDFDDIFSSIFGQHARQSRQRPATRGHDIEIEVAVFLEETLTEHKRTISYNLPVYNAFGMIEQEIPKTLNVKIPAGVGNGQRIRLKGQGTPGENGGPNGDLWLVIHIAPHPLFDIVGQDLEIVVPVSPWEAALGAKVTVPTLKESILLTIPPGSQAGQRLRVKGKGLVSKKQTGDLYAVLKIVMPPKPDENTAALWQQLADAQSSFDPRKDWGKA
B1: binds.
